Data published in publication PMC11580435.

Legend:
[1] = biological target: MBP-BccP (S. flexneri) (UniProt P0ABE1)
[2] = test system: 6xHis-BioID (Escherichia coli K-12); assay: EMSA; details: 50 mM Tris-HCl pH 8.0, 1 mM EDTA, 50 mM NaCl, 1 mM ATP, 1 mM MgCl2, 1 uM biotin, 10% glycerol; 30 min room temperature; 5% PAGE in 0.5x TAE at 4 C
[3] = test system: 6xHis-TurboID (Escherichia coli K-12); assay: EMSA; details: 50 mM Tris-HCl pH 8.0, 1 mM EDTA, 50 mM NaCl, 1 mM ATP, 1 mM MgCl2, 1 uM biotin, 10% glycerol; 30 min room temperature; 5% PAGE in 0.5x TAE at 4 C
[4] = test system: 6xHis-BirA (Escherichia coli K-12); assay: EMSA; details: 50 mM Tris-HCl pH 8.0, 1 mM EDTA, 50 mM NaCl, 1 mM ATP, 1 mM MgCl2, 1 uM biotin, 10% glycerol; 30 min room temperature; 5% PAGE in 0.5x TAE at 4 C
[5] = biological target: 6xHis-BioID R118G (Escherichia coli K-12) (UniProt P06709); assay: EMSA; details: 50 mM Tris-HCl pH 8.0, 1 mM EDTA, 50 mM NaCl, 1 mM ATP, 1 mM MgCl2, 1 uM biotin, 10% glycerol; 30 min room temperature; 5% PAGE in 0.5x TAE at 4 C
[6] = biological target: 6xHis-BirA (Escherichia coli K-12) (UniProt P06709); assay: EMSA; details: 50 mM Tris-HCl pH 8.0, 1 mM EDTA, 50 mM NaCl, 1 mM ATP, 1 mM MgCl2, 1 uM biotin, 10% glycerol; 30 min room temperature; 5% PAGE in 0.5x TAE at 4 C

With “6×His-BioID (from UniProt P06709 1-321) (enzyme)” the midpoint (t^50) of the in vitro biotinylation of MBP-BccP; 20 nM biotin ligase, 2 µM BccP, 37°C, streptavidin-HRP blot [1] was 3.4 min.

“6×His-TurboID (from UniProt P06709 1-321) (enzyme)” gave a midpoint (t^50) of the in vitro biotinylation of MBP-BccP; 20 nM biotin ligase, 2 µM BccP, 37°C, streptavidin-HRP blot [1] of 14.6 min.

In the case of biotin operator probe (112 bp), the binding signal (% probe shifted at 50 nM protein) [2] is reported as 41, the binding signal (% probe shifted at 50 nM protein) [3] is reported as 0.8 and the binding signal (% probe shifted at 50 nM protein) [4] is reported as 93.

With “GCCATGGGGCTTCTCCAAAACGTGTTTTTTGTTGTTAATTCGGTGTAGGCTTGTAAACCTAAATCTTTTCAATTTGGTTTACAAGTCGATTATGACAACGGACGATCTTGCC (double strand) [biotin operator probe (112 bp)]” the binding signal (% probe shifted at 50 nM protein) [5] was 41 and the binding signal (% probe shifted at 50 nM protein) [6] was 93.
